# Results as given in patent publication US20250263489A1.
# Target: recombinant human IGF-1 receptor histidine tag (305-GR-050, R&D SYSTEMS) (human) (UniProt P08069)
# Test: SPR, Biacore T200, summary sentence of Table 16
row,Kd [pM],Binder
1,< 100,"humanized antibody hIGF13_PS (antibody, V domains shown) VH: QVQLVQSGAEVKKPGASVKVSCKAPGYTFTSYWMHWVRQAPGQGLEWMGETNPSSSVTNYAQKFQGRVTLTVDTSTSTAYMELSSLRSEDTATYYCTIGRGRGFAYWGQGTLVTVSS VL: DIQMTQSPSSLSASVGDRVTITCRASQNINFWLSWYQQKPGKVPKLLIYKASNLHTGVPSRFSGSGSGTDFTLTISSLQPEDVATYYCLQGQSYPYTFGGGTKLEIK"
2,< 100,"humanized antibody hIGF25_PS (antibody, V domains shown) VH: QVQLVQSGAEVKKPGASVKVSCKAPGYTFTSYWMHWVRQAPGQGLEWMGETNPSSSVTNYAQKFQGRVTLTVDTSTSTAYMELSSLRSEDTAVYYCTIGRGRGFAYWGQGTLVTVSS VL: DIQMTQSPSSLSASVGDRVTITCRASQNINFWLSWYQQKPGKVPKLLIYKASNLHTGVPSRFSGSGSGTDFTLTISSLQPEDVATYYCLQGQSYPYTFGGGTKLEIK"

# Target: recombinant human IGF-1 receptor histidine tag (305-GR-050, R&D SYSTEMS) (human) (UniProt P08069)
# Test: antigen ELISA, plate-coated human recombinant IGF-1R, antibody at 5 nM, relative to IGF11-16
Binding @5 nM vs IGF11-16 (% vs IGF11-16),Binding vs IGF11-16 (EC50) (% vs IGF11-16),Binder
14,–,"IGF11-16 with alanine substitution of W at position 32 (CDR-L1) (antibody, V domains shown) VH: QIQLQQPGAELVKPGASVKLSCKAPGYTFTSYWMHWVKQRPGQGLEWIGETNPSNSVTNYNEKFKSKATLTVDKSSSTAYMQLSSLTSEDSAVYYCTIGRGRGFAYWGQGTLVTVSA VL: DIQMNQSPSSLSASLGDTITITCRASQNINFALSWCQQKPGNIPKLLIYKASNLHTGVPSRFSGSGSGTDFTLTISSLQPEDIATYYCLQGQSYPYTFGGGTKLEIK"
–,49,"IGF11-16 with alanine substitution of H at position 35 (CDR-H1) (antibody, mouse IgG1, V domains shown) VH: QIQLQQPGAELVKPGASVKLSCKAPGYTFTSYWMAWVKQRPGQGLEWIGETNPSNSVTNYNEKFKSKATLTVDKSSSTAYMQLSSLTSEDSAVYYCTIGRGRGFAYWGQGTLVTVSA VL: DIQMNQSPSSLSASLGDTITITCRASQNINFWLSWCQQKPGNIPKLLIYKASNLHTGVPSRFSGSGSGTDFTLTISSLQPEDIATYYCLQGQSYPYTFGGGTKLEIK"
–,9,"IGF11-16 with alanine substitution of E at position 50 (CDR-H2) (antibody, mouse IgG1, V domains shown) VH: QIQLQQPGAELVKPGASVKLSCKAPGYTFTSYWMHWVKQRPGQGLEWIGATNPSNSVTNYNEKFKSKATLTVDKSSSTAYMQLSSLTSEDSAVYYCTIGRGRGFAYWGQGTLVTVSA VL: DIQMNQSPSSLSASLGDTITITCRASQNINFWLSWCQQKPGNIPKLLIYKASNLHTGVPSRFSGSGSGTDFTLTISSLQPEDIATYYCLQGQSYPYTFGGGTKLEIK"
–,94,"IGF11-16 with alanine substitution of N at position 55 (CDR-H2) (antibody, mouse IgG1, V domains shown) VH: QIQLQQPGAELVKPGASVKLSCKAPGYTFTSYWMHWVKQRPGQGLEWIGETNPSASVTNYNEKFKSKATLTVDKSSSTAYMQLSSLTSEDSAVYYCTIGRGRGFAYWGQGTLVTVSA VL: DIQMNQSPSSLSASLGDTITITCRASQNINFWLSWCQQKPGNIPKLLIYKASNLHTGVPSRFSGSGSGTDFTLTISSLQPEDIATYYCLQGQSYPYTFGGGTKLEIK"

# Continued, binder first:
Binder,Binding @5 nM vs IGF11-16 (% vs IGF11-16),Binding vs IGF11-16 (EC50) (% vs IGF11-16)
"IGF11-16 with alanine substitution of F at position 64 (CDR-H2) (antibody, mouse IgG1, V domains shown) VH: QIQLQQPGAELVKPGASVKLSCKAPGYTFTSYWMHWVKQRPGQGLEWIGETNPSNSVTNYNEKAKSKATLTVDKSSSTAYMQLSSLTSEDSAVYYCTIGRGRGFAYWGQGTLVTVSA VL: DIQMNQSPSSLSASLGDTITITCRASQNINFWLSWCQQKPGNIPKLLIYKASNLHTGVPSRFSGSGSGTDFTLTISSLQPEDIATYYCLQGQSYPYTFGGGTKLEIK",–,84
"IGF11-16 with alanine substitution of S at position 56 (CDR-H2) (antibody, mouse IgG1, V domains shown) VH: QIQLQQPGAELVKPGASVKLSCKAPGYTFTSYWMHWVKQRPGQGLEWIGETNPSNAVTNYNEKFKSKATLTVDKSSSTAYMQLSSLTSEDSAVYYCTIGRGRGFAYWGQGTLVTVSA VL: DIQMNQSPSSLSASLGDTITITCRASQNINFWLSWCQQKPGNIPKLLIYKASNLHTGVPSRFSGSGSGTDFTLTISSLQPEDIATYYCLQGQSYPYTFGGGTKLEIK",–,108
"IGF11-16 with alanine substitution of W at position 33 (CDR-H1) (antibody, mouse IgG1, V domains shown) VH: QIQLQQPGAELVKPGASVKLSCKAPGYTFTSYAMHWVKQRPGQGLEWIGETNPSNSVTNYNEKFKSKATLTVDKSSSTAYMQLSSLTSEDSAVYYCTIGRGRGFAYWGQGTLVTVSA VL: DIQMNQSPSSLSASLGDTITITCRASQNINFWLSWCQQKPGNIPKLLIYKASNLHTGVPSRFSGSGSGTDFTLTISSLQPEDIATYYCLQGQSYPYTFGGGTKLEIK",–,9
"IGF11-16 with alanine substitution of N at position 52 (CDR-H2) (antibody, mouse IgG1, V domains shown) VH: QIQLQQPGAELVKPGASVKLSCKAPGYTFTSYWMHWVKQRPGQGLEWIGETAPSNSVTNYNEKFKSKATLTVDKSSSTAYMQLSSLTSEDSAVYYCTIGRGRGFAYWGQGTLVTVSA VL: DIQMNQSPSSLSASLGDTITITCRASQNINFWLSWCQQKPGNIPKLLIYKASNLHTGVPSRFSGSGSGTDFTLTISSLQPEDIATYYCLQGQSYPYTFGGGTKLEIK",–,21
"IGF11-16 with alanine substitution of S at position 54 (CDR-H2) (antibody, mouse IgG1, V domains shown) VH: QIQLQQPGAELVKPGASVKLSCKAPGYTFTSYWMHWVKQRPGQGLEWIGETNPANSVTNYNEKFKSKATLTVDKSSSTAYMQLSSLTSEDSAVYYCTIGRGRGFAYWGQGTLVTVSA VL: DIQMNQSPSSLSASLGDTITITCRASQNINFWLSWCQQKPGNIPKLLIYKASNLHTGVPSRFSGSGSGTDFTLTISSLQPEDIATYYCLQGQSYPYTFGGGTKLEIK",–,97
"IGF11-16 with alanine substitution of R at position 102 (CDR-H3) (antibody, mouse IgG1, V domains shown) VH: QIQLQQPGAELVKPGASVKLSCKAPGYTFTSYWMHWVKQRPGQGLEWIGETNPSNSVTNYNEKFKSKATLTVDKSSSTAYMQLSSLTSEDSAVYYCTIGRGAGFAYWGQGTLVTVSA VL: DIQMNQSPSSLSASLGDTITITCRASQNINFWLSWCQQKPGNIPKLLIYKASNLHTGVPSRFSGSGSGTDFTLTISSLQPEDIATYYCLQGQSYPYTFGGGTKLEIK",–,9
"IGF11-16 with alanine substitution of N at position 59 (CDR-H2) (antibody, mouse IgG1, V domains shown) VH: QIQLQQPGAELVKPGASVKLSCKAPGYTFTSYWMHWVKQRPGQGLEWIGETNPSNSVTAYNEKFKSKATLTVDKSSSTAYMQLSSLTSEDSAVYYCTIGRGRGFAYWGQGTLVTVSA VL: DIQMNQSPSSLSASLGDTITITCRASQNINFWLSWCQQKPGNIPKLLIYKASNLHTGVPSRFSGSGSGTDFTLTISSLQPEDIATYYCLQGQSYPYTFGGGTKLEIK",–,112

# Target: recombinant human IGF-1 receptor histidine tag (305-GR-050, R&D SYSTEMS) (human) (UniProt P08069)
# Test: SPR, Biacore T200, 40 C, IGF-1R-His captured by anti-histidine-tag antibody, antibody as analyte, single cycle kinetics, 1:1 Binding model
Kd [pM],koff [s⁻¹],kon [M⁻¹ s⁻¹],Binder
31.4,7.72e-05,2.67e+06,"mouse parent antibody IGF11-16 (antibody, mouse IgG1, kappa, V domains shown) VH: QIQLQQPGAELVKPGASVKLSCKAPGYTFTSYWMHWVKQRPGQGLEWIGETNPSNSVTNYNEKFKSKATLTVDKSSSTAYMQLSSLTSEDSAVYYCTIGRGRGFAYWGQGTLVTVSA VL: DIQMNQSPSSLSASLGDTITITCRASQNINFWLSWCQQKPGNIPKLLIYKASNLHTGVPSRFSGSGSGTDFTLTISSLQPEDIATYYCLQGQSYPYTFGGGTKLEIKR"
57.8,0.000158,2.85e+06,"humanized antibody hIGF13_PS (antibody, V domains shown) VH: QVQLVQSGAEVKKPGASVKVSCKAPGYTFTSYWMHWVRQAPGQGLEWMGETNPSSSVTNYAQKFQGRVTLTVDTSTSTAYMELSSLRSEDTATYYCTIGRGRGFAYWGQGTLVTVSS VL: DIQMTQSPSSLSASVGDRVTITCRASQNINFWLSWYQQKPGKVPKLLIYKASNLHTGVPSRFSGSGSGTDFTLTISSLQPEDVATYYCLQGQSYPYTFGGGTKLEIK"
51,0.000135,2.87e+06,"humanized antibody hIGF25_PS (antibody, V domains shown) VH: QVQLVQSGAEVKKPGASVKVSCKAPGYTFTSYWMHWVRQAPGQGLEWMGETNPSSSVTNYAQKFQGRVTLTVDTSTSTAYMELSSLRSEDTAVYYCTIGRGRGFAYWGQGTLVTVSS VL: DIQMTQSPSSLSASVGDRVTITCRASQNINFWLSWYQQKPGKVPKLLIYKASNLHTGVPSRFSGSGSGTDFTLTISSLQPEDVATYYCLQGQSYPYTFGGGTKLEIK"
